# Results as given in paper PMC314469, “Protein Interaction Networks by Proteome Peptide Scanning” (PLoS Biology, 2004).
# T1: amphyphisin SH3 (AMPH_HUMAN), P49418
# T1 chain: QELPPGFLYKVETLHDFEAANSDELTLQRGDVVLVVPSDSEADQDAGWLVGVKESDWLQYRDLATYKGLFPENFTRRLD
# Biological target: T1, amphyphisin SH3 (AMPH_HUMAN), P49418
# Test: SPOT array
row,Binder,"normalised SPOT signal, Boehringer light units (BLU); mean over the file's lines of this peptide"
1,RPALPGRPPRWLNR [Q8TDZ8 103-117],16100
2,RLRHLRRPRVARLL [Q9H1C0 128-141],15.2
3,RLGPPKRPPRKLGP [O15235 37-51],17100
4,RKPELERPIKVNLA [Q01650 421-434],103
5,RNPVLRRPPILEDY [Q96S08 361-374],29.1
6,RLPELKRPSGDQVQ [Q07075 143-156],37.2
7,RLIAISRPLRYVTV [P58180 122-135],4460
8,RMLVPGRPVKDATP [O94938 456-469],352
9,RPEDPTRPSRFQQQ [O15067 285-298],1830
10,RLAGPPRPPGHPRE [Q9BQU6 64-78],162
11,RLTSPLRPPEGVRL [O75467 160-174],235
12,RKPKPERPPSSSSS [Q9BW08 289-303],66.8
13,RPPRPSRPPPPTPR [O43584 87-101],7260
14,RPHAPGRPARGKVQ [Q16439 323-336],3930
15,RLKTLRRPRVRDRL [Q9NRC6 2111-2124],35.2
16,RPPVPPRPPRPPET [P52849 66-80],5400
17,RLIAPRRPWTLSHV [Q96M18 45-58],1130
18,RPPGPRRPERGPRG [P08913 304-317],13300
19,RPPPPAKPPPDEEE [Q92625 451-465],32.4
20,RKMEIYRPHKATAE [Q92769 50-63],16.3
21,RPPFLSRPARGLYS [Q16512 357-370],774

row,Binder,"normalised SPOT signal, Boehringer light units (BLU); mean over the file's lines of this peptide"
1,RPPNLKRPEDYEAV [O75992 403-416],12
2,RKWYPLRPKKINLD [Q9NRN8 254-267],177
3,RPAVLPRPEKPQLP [P78314 398-411],197
4,RPAPPQRPPPPSGA [O43426 1118-1132],1990
5,RLHRLRRPHSSSDA [Q9NT23 226-239],12.5
6,RLNWLGRPSKVLSL [O00407 179-192],213
7,RLYSIHRPSKQSLN [P55001 106-119],37.2
8,RLAALKRPDDVPLS [Q9UFC0 277-290],38
9,RLFSIVRPRRLLYM [Q9UL53 87-100],1390
10,AVAVPRRPRAGAER [O94839 5-18],106
11,RPPPPRRPQGPPPP [Q04118 259-272],35.7
12,RLRLPPKPPPPLQP [Q14296 184-198],896
13,RKMEIYRPHKANAE [Q13547 49-62],90.1
14,AAAVPRRPTQQGTV [Q96SQ5 2-15],38.9
15,RLLPPQRPGKSQRV [Q9UJS3 337-350],2730
16,RPALPGRPPQVAEQ [BAC05290 145-159],54.8
17,AVGPPKRPQPAALE [Q9ULK5 32-45],31.9
18,RPNPLRRPLNRKRA [Q96CZ1 23-36],156
19,AVAPPARPPRPPYP [AAH27972 515-529],4180
20,RPAKPHKPPGSMGL [O60292 677-691],163
21,RMKRPFRPPPAHFQ [P58012 147-161],554

# Biological target: endophilin SH3 (SH3G2_HUMAN), Q99962
# Test: SPOT array
row,Binder,"normalised SPOT signal, Boehringer light units (BLU); mean over the file's lines of this peptide"
1,RPALPGRPPRWLNR [Q8TDZ8 103-117],13400
2,RLRHLRRPRVARLL [Q9H1C0 128-141],24.3
3,RLGPPKRPPRKLGP [O15235 37-51],10500
4,RKPELERPIKVNLA [Q01650 421-434],123
5,RNPVLRRPPILEDY [Q96S08 361-374],15.8
6,RLPELKRPSGDQVQ [Q07075 143-156],34.9
7,RLIAISRPLRYVTV [P58180 122-135],658
8,RMLVPGRPVKDATP [O94938 456-469],2930
9,RPEDPTRPSRFQQQ [O15067 285-298],149
10,RLAGPPRPPGHPRE [Q9BQU6 64-78],2700
11,RLTSPLRPPEGVRL [O75467 160-174],1040
12,RKPKPERPPSSSSS [Q9BW08 289-303],7630
13,RPPRPSRPPPPTPR [O43584 87-101],13600
14,RPHAPGRPARGKVQ [Q16439 323-336],1270
15,RLKTLRRPRVRDRL [Q9NRC6 2111-2124],32.1
16,RPPVPPRPPRPPET [P52849 66-80],8560
17,RLIAPRRPWTLSHV [Q96M18 45-58],2240
18,RPPGPRRPERGPRG [P08913 304-317],4970
19,RPPPPAKPPPDEEE [Q92625 451-465],89
20,RKMEIYRPHKATAE [Q92769 50-63],179
21,RPPFLSRPARGLYS [Q16512 357-370],1450

row,Binder,"normalised SPOT signal, Boehringer light units (BLU); mean over the file's lines of this peptide"
1,RPPNLKRPEDYEAV [O75992 403-416],67.7
2,RKWYPLRPKKINLD [Q9NRN8 254-267],204
3,RPAVLPRPEKPQLP [P78314 398-411],213
4,RPAPPQRPPPPSGA [O43426 1118-1132],12200
5,RLHRLRRPHSSSDA [Q9NT23 226-239],9.6
6,RLNWLGRPSKVLSL [O00407 179-192],270
7,RLYSIHRPSKQSLN [P55001 106-119],290
8,RLAALKRPDDVPLS [Q9UFC0 277-290],49.2
9,RLFSIVRPRRLLYM [Q9UL53 87-100],702
10,AVAVPRRPRAGAER [O94839 5-18],256
11,RPPPPRRPQGPPPP [Q04118 259-272],3820
12,RLRLPPKPPPPLQP [Q14296 184-198],6030
13,RKMEIYRPHKANAE [Q13547 49-62],78.7
14,AAAVPRRPTQQGTV [Q96SQ5 2-15],182
15,RLLPPQRPGKSQRV [Q9UJS3 337-350],25000
16,RPALPGRPPQVAEQ [BAC05290 145-159],501
17,AVGPPKRPQPAALE [Q9ULK5 32-45],393
18,RPNPLRRPLNRKRA [Q96CZ1 23-36],200
19,AVAPPARPPRPPYP [AAH27972 515-529],9580
20,RPAKPHKPPGSMGL [O60292 677-691],5260
21,RMKRPFRPPPAHFQ [P58012 147-161],5130
